Measured values as given in paper PMC10355216 (2023).
Where no end group is shown, it is not given here.

B1: full-length CSNAP, C-terminally biotinylated (natural protein)
chain: MKPAVDEMFPEGAGPYVDLDEAGGSTGLLMDLAANEKAVHADFFNDFEDLFDDDDIQ-biotin

What was measured:
[1] = molecular target: T1, recombinant CSN^ΔCSNAP complex (UniProt Q13098 1-491; Q9UNS2 1-423; Q92905 1-334; Q99627 2-209); experiment: SPR
[2] = molecular target: T1, recombinant CSN^ΔCSNAP complex; experiment: SPR; remark: listed apart in the source

| Binder | Kd [1] [pM] | koff [2] [s⁻¹] |
| --- | --- | --- |
| DFFNDFEDLFDDDDIQ-biotin [16AA C-CSNAP peptide, C-terminally biotinylated] | 400 | 0.0014 |
| AVHADFFNDFEDLFDDDDIQ-biotin [20AA C-CSNAP peptide, C-terminally biotinylated] | 410 | 0.001 |
| B1 | 68 | 0.00016 |
| EFFNDFEDLFDDDDIQ-biotin [D42E C-CSNAP peptide, C-terminally biotinylated] | 2500 | 0.0027 |
